Measurements from publication PMC3124598.

Molecular target: TcpP-HSV (wild type, HSV epitope-tagged TcpP) (V. cholerae) (UniProt P29485)
Experiment: […], in 20 mM HEPES pH 7.0, 150 mM NaCl) […]

Chain of UniProt P29485 (P29485 whole entry): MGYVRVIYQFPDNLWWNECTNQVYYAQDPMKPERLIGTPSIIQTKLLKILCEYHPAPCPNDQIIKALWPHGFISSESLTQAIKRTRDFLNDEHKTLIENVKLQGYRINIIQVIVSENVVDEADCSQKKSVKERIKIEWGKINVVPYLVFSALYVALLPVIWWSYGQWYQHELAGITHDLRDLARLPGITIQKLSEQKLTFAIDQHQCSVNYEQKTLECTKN

With “ToxR-P101L (chromosomal toxR locus) (natural protein)” the percent of wild-type levels of interaction (% of wild-type) was 15.
